From patent US7271245B2, “Methods and compositions for inhibition of metastasis” (The Scripps Research Institute, priority 2004, dated 2007)

Experiments:
[1] = test system: BMS human breast cancer cells; assay: Haptotactic tumor cell migration toward fibrinogen (transwell); type: cell-based; conditions: 200 μM peptide, 16 hrs at 37° C.
Experimental: (§1) FIGS. 3A, 3B, 3C, 3D, 3E. scFv Bc-12 and Bc-15 inhibit αvβ3 mediated adhesive breast cancer cell functions. (A) Adhesion of BMS human breast cancer cells to fibrinogen (Fg), vitronectin (VN) or type I collagen (Col I) in the absence or presence of 3 μM Bc-12, Bc-15 or their RGE mutants Mut-12, Mut-15, compared to 200 μM GRGDSPK peptide (SEQ ID NO: 11). Protein coating concentrations: 10 μg/ml (VN, Col I) or 20 μg/ml (Fg). Adhesion time: 30 min at 37° C. (B) Effect of scFvs on haptotactic BMS cell migration toward a fibrinogen substrate (16 hrs at 37° C. in transwell chambers with or without 2 μM Bc-12, Bc-15 or their RGE mutants Mut-12 or Mut-15, compared to 200 μM GRGDSPK peptide) (SEQ ID NO: 11). (C) Effect of scFvs on breast cancer cell arrest during blood flow. Metastatic BMS cells, labeled with hydroethidine, were suspended in human blood (anticoagulated with 50 nM PPACK) and perfused over a collagen I matrix at a venous wall shear rate of 50 s^−1. Under these conditions, breast cancer cells arrest by αvβ3 mediated binding to adherent, thrombus forming platelets. Tumor cell adhesion was quantified by image acquisition at 30 predefined positions during blood flow. Left: representative images of platelet signal (thrombi, green fluorescence) and tumor cell signal (red fluorescence) at identical x,y positions. Right: Number of arrested tumor cells in the presence of 3 μM non-function blocking anti αv scFv Bc-20 or function blocking anti αvβ3 scFvs Bc-12 or Bc-15. (D) scFv Bc-15 is internalized by human breast cancer cells and reduces cell proliferation. Left: confocal images of BMS cells incubated for 4 hrs with FITC-Bc-15 at 4° C. (binding) versus 37° C. (allowing internalization). Right: Phase contrast images of BMS cell cultures 4 days after seeding in the presence of 2 μM RGE containing scFv Mut-15, or RGD containing Bc-15. […]
Cell adhesion and migration. Tumor cell adhesion under stationary conditions was analyzed as detailed earlier (19). […] Haptotactic tumor cell migration toward fibrinogen was analyzed in transwell chambers as detailed earlier. […]

[2] = test system: BMS human breast cancer cells; assay: Tumor cell adhesion under stationary conditions; type: cell-based; conditions: 200 μM peptide, 30 min at 37° C.
Experimental: FIGS. 3A, 3B, 3C, 3D, 3E. scFv Bc-12 and Bc-15 inhibit αvβ3 mediated adhesive breast cancer cell functions. (A) Adhesion of BMS human breast cancer cells to fibrinogen (Fg), vitronectin (VN) or type I collagen (Col I) in the absence or presence of 3 μM Bc-12, Bc-15 or their RGE mutants Mut-12, Mut-15, compared to 200 μM GRGDSPK peptide (SEQ ID NO: 11). Protein coating concentrations: 10 μg/ml (VN, Col I) or 20 μg/ml (Fg). Adhesion time: 30 min at 37° C. (B) Effect of scFvs on haptotactic BMS cell migration toward a fibrinogen substrate (16 hrs at 37° C. in transwell chambers with or without 2 μM Bc-12, Bc-15 or their RGE mutants Mut-12 or Mut-15, compared to 200 μM GRGDSPK peptide) (SEQ ID NO: 11). (C) Effect of scFvs on breast cancer cell arrest during blood flow. Metastatic BMS cells, labeled with hydroethidine, were suspended in human blood (anticoagulated with 50 nM PPACK) and perfused over a collagen I matrix at a venous wall shear rate of 50 s^−1. Under these conditions, breast cancer cells arrest by αvβ3 mediated binding to adherent, thrombus forming platelets. Tumor cell adhesion was quantified by image acquisition at 30 predefined positions during blood flow. Left: representative images of platelet signal (thrombi, green fluorescence) and tumor cell signal (red fluorescence) at identical x,y positions. Right: Number of arrested tumor cells in the presence of 3 μM non-function blocking anti αv scFv Bc-20 or function blocking anti αvβ3 scFvs Bc-12 or Bc-15. (D) scFv Bc-15 is internalized by human breast cancer cells and reduces cell proliferation. Left: confocal images of BMS cells incubated for 4 hrs with FITC-Bc-15 at 4° C. (binding) versus 37° C. (allowing internalization). Right: Phase contrast images of BMS cell cultures 4 days after seeding in the presence of 2 μM RGE containing scFv Mut-15, or RGD containing Bc-15. (E) Effect of scFv Bc-12 on the viability of matrix deprived BMS breast cancer cells in ultra-low-adhesion plates in the presence or absence of 3.7 μM scFv, or 14.36 μM camptothecin as apoptosis inducing control. Measurement of apoptosis was based on cytoplasmic histone-associated DNA fragments after 20 hrs.
Cell adhesion and migration. Tumor cell adhesion under stationary conditions was analyzed as detailed earlier (19). Adhesion buffer was Hanks balanced salt solution (HBSS) pH 7.4, 0.5% BSA, 1 mM MgCl2, 0.2 mM MnCl2. For inhibition, cells were incubated for 5 min at RT either with 3 μM scFv or 200 μM GRGDSPK (SEQ ID NO: 11) peptide, then plated in the presence of inhibitor and allowed to attach for 30 min at 37° C. Haptotactic tumor cell migration toward fibrinogen was analyzed in transwell chambers as detailed earlier. Rolli, M., et al., Proc. Natl. Acad. Sci. U.S.A 100: 9482-9487, 2003. […]

[3] = test system: BMS breast cancer cells; assay: Tumor cell arrest during blood flow; type: cell-based; conditions: 3 μM scFv, human blood, collagen I matrix, shear rate 50 s^−1
Experimental: as §1, with “positions.” for “positions. Right: Number of arrested tumor cells in the presence of 3 μM non-function blocking anti αv scFv Bc-20 or function blocking anti αvβ3 scFvs Bc-12 or Bc-15. (D) scFv Bc-15 is internalized by human breast cancer cells and reduces cell proliferation. Left: confocal images of BMS cells incubated for 4 hrs with FITC-Bc-15 at 4° C. (binding) versus 37° C. (allowing internalization). Right: Phase contrast images of BMS cell cultures 4 days after seeding in the presence of 2 μM RGE containing scFv Mut-15, or RGD containing Bc-15.”
Tumor cell arrest during bloodflow. Breast cancer cell arrest during blood flow and interaction with platelets was measured as described. […] Adhesive events and cell interactions were visualized and recorded by fluorescence video microscopy and quantified by image acquisition at 30 predefined positions followed by computerized image analysis (MetaMorph, Universal Imaging). Tumor cells were stained with hydroethidine (red fluorescence) (20 μg/ml, 30 min, 37° C.), washed, and mixed with blood containing 10 μM mepacrine (green fluorescence). Blood cells, tumor cells, and platelets acquired green fluorescence and were visualized at 488/515 nm (excitation/emission). Tumor cells were identified by their unique red fluorescence at 543/590 nm. […]

[4] = test system: integrin αvβ3; assay: Flow cytometry, scFv binding to human tumor cell panel
Experimental: FIGS. 1A, 1B, 1C. Patient derived scFvs Bc-12 and Bc-15 recognize tumor cell integrin αvβ3 in a cation and activation dependent manner. Flow cytometric analyses in TBS with or without 1 mM Ca^2+, 1 mM Mg^2+, or 0.2 mM Mn^2+ as indicated. Binding of soluble scFv detected after incubation with anti-Flag M2 murine mAb followed by FITC-anti mouse F(ab′)2. (A) scFv binding to human melanoma cells (M21: αvβ3 plus other αv integrins) (M21-LIIb: αIIbβ3, no αv integrins) or lung adenocarcinoma cells (UCLA-P3: αv integrins, no β3 integrin). (B) scFv binding to M21 melanoma cells. (C) scFv binding to variants of MDA-MB 435 human breast cancer cells that lack (β^3−) or express αvβ3 either in a non-activated (β3WT, ParentCo) or activated form (β3D723R, Bone, Lung, and BMS metastatic cancer cells isolated from breast cancer patient blood).
Flow cytometry. scFv binding to human tumor cells was analyzed by flow cytometry, initially with cloned scFv phage and then with purified scFv protein. Per sample, 2×10^5 tumor cells were blocked with goat serum and incubated either with scFv phage (2-5×10^10) (1 h at RT) followed by mouse anti-M13 mAb (Serotec) (30 min on ice) and goat FITC-anti mouse (Pierce) (30 min on ice), or with purified scFv (1.25 to 40 μg/ml, routinely 10 to 15 μg/ml) (45 min on ice), followed by mouse anti-FLAG mAb M2 (Sigma) (30 min on ice) and goat FITC-anti mouse. Binding/washing buffer was TBS with or without divalent cations (1 mM Ca^2+, 1 mM Mg^2+, 0.2 mM Mn^2+). Alternatively, tumor cells were washed in 10 ml of plasma (prepared freshly from human blood anticoagulated with 50 nM D-Phe-D-Pro-D-arginyl chloromethyl ketone, PPACK, Felding-Habermann et al., J. Biol. Chem. 271: 5892-5900, 1996), resuspended in plasma and then incubated sequentially, without washing, with purified scFv (45 min on ice), followed by anti-FLAG M2 (30 min on ice) and FITC-anti mouse (30 min on ice). All samples were counter stained with propidium iodide (PI) and analyzed on a Becton-Dickinson FACScan, with live gate set to exclude PI positive cells.
To generate therapeutic reagents that specifically react with activated αvβ3, a phage display library of single chain antibody fragments (scFv) was exploited. This library was derived from cancer patient blood lymphocyte cDNA libraries and allowed us to test the hypothesis that the expressed immune repertoire contains antibodies that recognize integrin αvβ3, and distinguish between its activated and non-activated forms. Mao et al., Proc. Natl. Acad. Sci. U.S.A 96: 6953-6958, 1999. A subtractive panning approach was designed based on variants of MDA-MB 435 human breast cancer cells. […] Apparently, these cells are selected during metastasis, as variant cells isolated from lung and bone metastases in immune deficient mice express constitutively activated αvβ3. To establish a cell population that uniformly expresses non-activated αvβ3, MDA-MB 435 parental cells were cloned by limiting dilution, and clones tested for αvβ3 functionality. […] A cell line, MDA-MB 435 Lung-Lung, was established which expressed αvβ3 in a constitutively activated form. This variant stems from a lung metastase of an immune deficient mouse whose mammary fat pad had been injected with parental MDA-MB 435 cells. Felding-Habermann et al., Proc. Natl. Acad. Sci. U.S.A 98: 1853-1858, 2001; Rolli et al., Proc. Natl. Acad. Sci. U.S.A 100: 9482-9487, 2003. To enrich for the ability to colonize the lung from the blood stream, the Lung variant was subsequently injected intravenously, and tumor cells cultured 3 weeks later from the excised lung. Parent Combo cells were used to subtract the scFv phage library to eliminate antibodies against antigens shared by the MDA-MB 435 cell variants. […]

[5] = test system: human melanoma cells; conditions: mouse model; cited from earlier work

For “GRGDSPK [a fibronectin derived peptide, reference compound]”, the fibrinogen directed migration [1] was “This effect was similar to that seen with 200 μM GRGDSPK” and the “adhesion to immobilized fibrinogen” value [2] was “extent of inhibition by 3 μM scFv was similar to that observed with 200 μM GRGDSPK”.

B1: Bc-20: non-RGD containing, non-function blocking anti αv scFv (protein)
scFv: MAQVQLVQSGGGLVQPGGSLRLSCAASGFTFSSYWMSWVRQAPGKGLEWVANIKQDGSEKYYVDSVKGRFTISRDNAKNSLYLQMNSLRAEDTAVYYCARDGGFAGWAFDIWGQGTTVTVSSGGGGSGGGGSGGGGSDIQMTQSPSALSASVGDRVTITCRASQGLDNYLAWYQLQPGKAPKLLIYDAFTLQSGVPSRFSGGGSGTDFTLTISSLQPEDFATYFCQQLQSYPLTFGGGTKVEIKRGLGGLVDYKDDD
With B1 the “breast cancer cell arrest during blood flow” value [3] was “no effect”, the “reactivity with human tumor cells that express or lack αvβ3” value ([4]; M21, M21-LIIb, UCLA-P3 cells, flow cytometry) was “reacted with αv positive cells, regardless of the associated β subunit” and the “cation requirement of binding” value ([4]; TBS with or without divalent cations) was “did not require divalent metal cations”.

B2: LM609: function blocking antibody against integrin αvβ3 (antibody, V domains shown)
VH: EVQLEESGGGLVKPGGSLKLSCAASGFAFSSYDMSWVRQIPEKRLEWVAKVSSGGGSTYYLDTVQGRFTISRDNAKNTLYLQMSSLNSEDTAMYYCARHNYGSFAYWGQGTLVTVSA
VL: ELVMTQTPATLSVTPGDSVSLSCRASQSISNHLHWYQQKSHESPRLLIKYASQSISGIPSRFSGSGSGTDFTLSINSVETEDFGMYFCQQSNSWPHTFGGGTKLEIKRA
In the case of B2, the “metastatic activity of human melanoma cells” value [5] is given as “inhibited metastatic activity of human melanoma cells in a mouse model”.
